Source: the RNAGym collection of RNA variant scans (doi:10.1021/acssynbio.7b00057)

B1: Pistol ribozyme (parent)
chain: GGGUCGUUGUUCCAUAAUCGCGUGGAUAUGGCACGCAAGUUUCUACCGGGCACCGUAAAUGUCCGACUGGAGCCGUUCGGGCGGCUAUAAACAGACCUCAGGCCCGAAGCGUGGCGGCACCUGCCGCCGGUGGUAAAAAAGAUCGGAAGAGCACACGUCU

Variants of: B1
Assay: aptazyme ON/OFF ratio, guanine; higher = stronger switching; co-transcriptional cleavage with and without guanine

| Variant | aptazyme ON/OFF ratio |
| --- | --- |
| U7G U8G G9C C13G | 1.16 |
| U7G U8G G9C C13U | 1.47 |
| U7G U8G G9C C13A | 1.42 |
| U7G U8G G9C U10A U11C C12U C13A | 1.06 |
| U7G U8G G9C U10A U11C C12U C13U | 1.04 |
| U7G U8G G9C U10A U11C C12U C13G | 1.19 |
| U7G U8G G9C U10C U11A C13U | 1.41 |
| U7G U8G G9C U10C U11A C13G | 1.17 |
| U7G U8G G9C U10C U11A C13A | 1.21 |
| U7G U8G G9U U10A U11C C12A C13U | 1.17 |
| U7G U8G G9U U10A U11C C12A C13G | 1.08 |
| U7G U8G G9U U10A U11C C12A C13A | 1.1 |
| U7G U8G G9C U11A C12U | 1.53 |
| U7G U8G G9C U11A C12A | 1.31 |
| U7G U8G G9C U11A C12G | 1.17 |
| U7G U8G G9C U11C C13A | 1.4 |
| U7G U8G G9C U11C C13U | 1.33 |
| U7G U8G G9C U11C C13G | 1.4 |
| U7G U8G G9C U10C U11C C12A | 1.09 |
| U7G U8G G9C U10C U11C C12U | 1.18 |
| U7G U8G G9C U10C U11C C12G | 1.05 |
| U7G U8G G9U U10A C12U C13U | 1.06 |
| U7G U8G G9U U10A C12U C13G | 1.09 |
| U7G U8G G9U U10A C12U C13A | 1.11 |

| Variant | aptazyme ON/OFF ratio |
| --- | --- |
| U7G U8G G9C U10G C12U C13U | 1.09 |
| U7G U8G G9C U10G C12U C13A | 1.06 |
| U7G U8G G9C U10G C12U C13G | 1.05 |
| U7G U8G G9C U10C | 2.35 |
| U7G U8G G9C U10A | 1.58 |
| U7G U8G G9C U10G | 1.74 |
| U7G U8G G9C C12U C13U | 1.12 |
| U7G U8G G9C C12U C13A | 1.11 |
| U7G U8G G9C C12U C13G | 1.22 |
| U7G U8G G9U U10A U11C C13U | 1.07 |
| U7G U8G G9U U10A U11C C13A | 1.11 |
| U7G U8G G9U U10A U11C C13G | 1.09 |
| U7G U8G G9U U10A | 3.21 |
| U7G U8G G9U U10A U11A C12U C13G | 1.11 |
| U7G U8G G9U U10A U11A C12U C13U | 1.18 |
| U7G U8G G9U U10A U11A C12U C13A | 1.11 |
| U7G U8G G9C U10C U11A C12U C13A | 1.36 |
| U7G U8G G9C U10C U11A C12U C13G | 1.32 |
| U7G U8G G9C U10C U11A C12U C13U | 1.23 |
| U7G U8G G9C U10C C12G C13G | 1.09 |
| U7G U8G G9C U10C C12G C13U | 1.27 |
| U7G U8G G9C U10C C12G C13A | 1.22 |
| U7G U8G G9C U11G C12G C13G | 1.24 |
| U7G U8G G9C U11G C12G C13U | 1.18 |

| Variant | aptazyme ON/OFF ratio |
| --- | --- |
| U7G U8G G9C U11G C12G C13A | 1.17 |
| U7G U8G G9C U10C U11A C12G C13A | 1.28 |
| U7G U8G G9C U10C U11A C12G C13U | 1.24 |
| U7G U8G G9C U10C U11A C12G C13G | 1.24 |
| U7G U8G G9C U10C U11A C12G | 1.32 |
| U7G U8G G9C U10C U11A C12A | 1.3 |
| U7G U8G G9C U10C U11A C12U | 1.3 |
| U7G U8G G9C U10G U11G C12G | 1.15 |
| U7G U8G G9C U10G U11G C12A | 1.11 |
| U7G U8G G9C U10G U11G C12U | 1.19 |
| U7G U8G G9C U10G U11G C13G | 1.17 |
| U7G U8G G9C U10G U11G C13U | 1.28 |
| U7G U8G G9C U10G U11G C13A | 1.18 |
| U7G U8G G9U C13U | 1.43 |
| U7G U8G G9U C13A | 1.44 |
| U7G U8G G9U C13G | 1.26 |
| U7G U8G G9C U10A U11G C12U C13G | 1.04 |
| U7G U8G G9C U10A U11G C12U C13A | 1.07 |
| U7G U8G G9C U10A U11G C12U C13U | 1.05 |
| U7G U8G G9C U10A C13A | 1.05 |
| U7G U8G G9C U10A C13U | 1.03 |
| U7G U8G G9C U10A C13G | 1.01 |
| U7G U8G G9C U10A U11C C12A | 1.06 |
| U7G U8G G9C U10A U11C C12U | 1.08 |

| Variant | aptazyme ON/OFF ratio |
| --- | --- |
| U7G U8G G9C U10A U11C C12G | 1.11 |
| U7G U8G G9C U11C C12U | 2.49 |
| U7G U8G G9C U11C C12G | 3 |
| U7G U8G G9C U11C C12A | 5.2 |
| U7G U8G G9C U10A U11G C12A C13U | 1.05 |
| U7G U8G G9C U10A U11G C12A C13A | 1.07 |
| U7G U8G G9C U10A U11G C12A C13G | 1.12 |
| U7G U8G G9U U10A U11G C12A | 1.03 |
| U7G U8G G9U U10A U11G C12U | 1.07 |
| U7G U8G G9U U10A U11G C12G | 1.08 |
| U7G U8G G9C U10A U11C C13A | 1.07 |
| U7G U8G G9C U10A U11C C13G | 1.05 |
| U7G U8G G9C U10A U11C C13U | 1.07 |
| U7G U8G G9C U10G U11G C12A C13A | 1.09 |
| U7G U8G G9C U10G U11G C12A C13U | 1.09 |
| U7G U8G G9C U10G U11G C12A C13G | 1.15 |
| U7G U8G G9C U11A C12G C13G | 1.07 |
| U7G U8G G9C U11A C12G C13U | 1.2 |
| U7G U8G G9C U11A C12G C13A | 1.12 |
| U7G U8G G9C U11A C13G | 1.04 |
| U7G U8G G9C U11A C13U | 1.36 |
| U7G U8G G9C U11A C13A | 1.15 |
| U7G U8G G9C U10C C13U | 1.59 |
| U7G U8G G9C U10C C13A | 1.44 |

| Variant | aptazyme ON/OFF ratio |
| --- | --- |
| U7G U8G G9C U10C C13G | 1.15 |
| U7G U8G G9U U10A U11C C12U C13U | 1.29 |
| U7G U8G G9U U10A U11C C12U C13A | 1.16 |
| U7G U8G G9U U10A U11C C12U C13G | 1.08 |
| U7G U8G G9C U10A U11A C12A C13U | 1.04 |
| U7G U8G G9C U10A U11A C12A C13A | 1.05 |
| U7G U8G G9C U10A U11A C12A C13G | 1.04 |
| U7G U8G G9U C12G C13U | 1.27 |
| U7G U8G G9U C12G C13A | 1.3 |
| U7G U8G G9U C12G C13G | 1.31 |
| U7G U8G G9C U10C U11G C12G C13A | 1.19 |
| U7G U8G G9C U10C U11G C12G C13U | 1.07 |
| U7G U8G G9C U10C U11G C12G C13G | 1.17 |
| U7G U8G G9C U10A U11C C12A C13G | 1.06 |
| U7G U8G G9C U10A U11C C12A C13U | 1.04 |
| U7G U8G G9C U10A U11C C12A C13A | 1.07 |
| U7G U8G G9C U11A | 4.32 |
| U7G U8G G9C U11C | 2.07 |
| U7G U8G G9C U11G | 2.2 |
| U7G U8G G9C U11A C12A C13A | 1.14 |
| U7G U8G G9C U11A C12A C13G | 1.05 |
| U7G U8G G9C U11A C12A C13U | 1.16 |
| U7G U8G G9C U10A U11A C12G | 1.07 |
| U7G U8G G9C U10A U11A C12A | 1.07 |

| Variant | aptazyme ON/OFF ratio |
| --- | --- |
| U7G U8G G9C U10A U11A C12U | 1.07 |
| U7G U8G G9C U10A U11G C12G C13G | 1.07 |
| U7G U8G G9C U10A U11G C12G C13A | 1.1 |
| U7G U8G G9C U10A U11G C12G C13U | 1.06 |
| U7G U8G G9C U10G U11C C12A C13A | 1.1 |
| U7G U8G G9C U10G U11C C12A C13G | 1.05 |
| U7G U8G G9C U10G U11C C12A C13U | 1.12 |
| U7G U8G G9C U10A U11G C13U | 1.04 |
| U7G U8G G9C U10A U11G C13A | 1.08 |
| U7G U8G G9C U10A U11G C13G | 1.03 |
| U7G U8G G9U U10A U11C C12G | 1.19 |
| U7G U8G G9U U10A U11C C12U | 1.22 |
| U7G U8G G9U U10A U11C C12A | 1.32 |
| U7G U8G G9C U10C U11G C13G | 1.27 |
| U7G U8G G9C U10C U11G C13U | 1.3 |
| U7G U8G G9C U10C U11G C13A | 1.38 |
| U7G U8G G9U U10A U11G C12G C13U | 1.05 |
| U7G U8G G9U U10A U11G C12G C13A | 1.13 |
| U7G U8G G9U U10A U11G C12G C13G | 1.06 |
| U7G U8G G9C U10A C12A C13G | 1.04 |
| U7G U8G G9C U10A C12A C13A | 1.03 |
| U7G U8G G9C U10A C12A C13U | 1.04 |
| U7G U8G G9C C12G C13A | 1.28 |
| U7G U8G G9C C12G C13U | 1.35 |

| Variant | aptazyme ON/OFF ratio |
| --- | --- |
| U7G U8G G9C C12G C13G | 1.13 |
| U7G U8G G9C U10C U11G C12A | 1.22 |
| U7G U8G G9C U10C U11G C12G | 1.23 |
| U7G U8G G9C U10C U11G C12U | 1.37 |
| U7G U8G G9C U10A U11A C12G C13U | 1.02 |
| U7G U8G G9C U10A U11A C12G C13A | 1.08 |
| U7G U8G G9C U10A U11A C12G C13G | 1.05 |
| U7G U8G G9C U10C C12G | 1.28 |
| U7G U8G G9C U10C C12U | 1.38 |
| U7G U8G G9C U10C C12A | 1.33 |
| U7G U8G G9C U10A U11G C12A | 1.05 |
| U7G U8G G9C U10A U11G C12G | 1.08 |
| U7G U8G G9C U10A U11G C12U | 1.12 |
| U7G U8G G9U U10A U11C C12G C13A | 1.08 |
| U7G U8G G9U U10A U11C C12G C13U | 1.14 |
| U7G U8G G9U U10A U11C C12G C13G | 1.09 |
| U7G U8G G9C U10C U11A C12A C13A | 1.33 |
| U7G U8G G9C U10C U11A C12A C13G | 1.23 |
| U7G U8G G9C U10C U11A C12A C13U | 1.12 |
| U7G U8G G9U U10A U11A C12G C13U | 1.14 |
| U7G U8G G9U U10A U11A C12G C13A | 1.2 |
| U7G U8G G9U U10A U11A C12G C13G | 1.11 |
| U7G U8G G9C U10A C12U C13U | 1.04 |
